This note sets out measurements from patent US20220042033A1, “COMPOSITION AND METHOD FOR CONFERRING AND/OR ENHANCING TOLERANCE AGAINST HERBICIDES BY USING VARIANTS OF PPO” (FarmHannong Co., Ltd., priority 2017, published 2022).

B1: I311M + M365I: MxPPO (SEQ ID NO: 3) variant (protein)
chain: MHHMPRTTGMNVAVVGGGISGLAVAHHLRSRGTDAVLLESSARLGGAVGTHALAGYLVEQGPNSFLDREPATRALAAALNLEGRIRAADPAAKRRYVYTRGRLRSVPASPPAFLASDILPLGARLRVAGELFSRRAPEGVDESLAAFGRRHLGHRATQVLLDAVQTGIYAGDVEQLSVAATFPMLVKMEREHRSLILGAIRAQKAQRQAALPAGTAPKLSGALSTFDGGLQVLIDALAASLGDAAHVGARVEGLAREDGGWRLIIEEHGRRAELSVAQVVLAAPAHATAKLLRPLDDALAALVAGIAYAPMAVVHLGFDAGTLPAPDGFGFLVPAEEQRRMLGAIHASTTFPFRAEGGRVLYSCIVGGARQPGLVEQDEDALAALAREELKALAGVTARPSFTRVFRWPLGIPQYNLGHLERVAAIDAALQRLPGLHLIGNAYKGVGLNDCIRNAAQLADALVAGNTSHAP
modifications: Synthetic (Protoporphyrinogen IX oxidase (MxPPO) of Myxococcus xanthus)
B2: A170C + M365V: MxPPO (SEQ ID NO: 3) variant (protein)
chain: B1 chain with A170C, M311I, I365V
modifications: Synthetic (Protoporphyrinogen IX oxidase (MxPPO) of Myxococcus xanthus)
B3: I311M + M365V: MxPPO (SEQ ID NO: 3) variant (protein)
chain: B1 chain with I365V
modifications: Synthetic (Protoporphyrinogen IX oxidase (MxPPO) of Myxococcus xanthus)
B4: L332T + M365V: MxPPO (SEQ ID NO: 3) variant (protein)
chain: B1 chain with M311I, L332T, I365V
modifications: Synthetic (Protoporphyrinogen IX oxidase (MxPPO) of Myxococcus xanthus)
B5: A170L: MxPPO (SEQ ID NO: 3) variant (protein)
chain: B1 chain with A170L, M311I, I365M
modifications: Synthetic (Protoporphyrinogen IX oxidase (MxPPO) of Myxococcus xanthus)
B6: I311M: MxPPO (SEQ ID NO: 3) variant (protein)
chain: B1 chain with I365M
modifications: Synthetic (Protoporphyrinogen IX oxidase (MxPPO) of Myxococcus xanthus)
B7: A170C + M365I: MxPPO (SEQ ID NO: 3) variant (protein)
chain: B1 chain with A170C, M311I
modifications: Synthetic (Protoporphyrinogen IX oxidase (MxPPO) of Myxococcus xanthus)
B8: R95A + I168C + M365I: MxPPO (SEQ ID NO: 3) variant (protein)
chain: B1 chain with R95A, I168C, M311I
modifications: Synthetic (Protoporphyrinogen IX oxidase (MxPPO) of Myxococcus xanthus)
B9: R95A + A170C + M365I: MxPPO (SEQ ID NO: 3) variant (protein)
chain: B1 chain with R95A, A170C, M311I
modifications: Synthetic (Protoporphyrinogen IX oxidase (MxPPO) of Myxococcus xanthus)
B10: L332T + M365I: MxPPO (SEQ ID NO: 3) variant (protein)
chain: B1 chain with M311I, L332T
modifications: Synthetic (Protoporphyrinogen IX oxidase (MxPPO) of Myxococcus xanthus)
B11: R95A + I311M + M365V: MxPPO (SEQ ID NO: 3) variant (protein)
chain: B1 chain with R95A, I365V
modifications: Synthetic (Protoporphyrinogen IX oxidase (MxPPO) of Myxococcus xanthus)
B12: R95A + M365V: MxPPO (SEQ ID NO: 3) variant (protein)
chain: B1 chain with R95A, M311I, I365V
modifications: Synthetic (Protoporphyrinogen IX oxidase (MxPPO) of Myxococcus xanthus)
B13: R95A + M365I: MxPPO (SEQ ID NO: 3) variant (protein)
chain: B1 chain with R95A, M311I
modifications: Synthetic (Protoporphyrinogen IX oxidase (MxPPO) of Myxococcus xanthus)
B14: M365T: MxPPO (SEQ ID NO: 3) variant (protein)
chain: B1 chain with M311I, I365T
modifications: Synthetic (Protoporphyrinogen IX oxidase (MxPPO) of Myxococcus xanthus)
B15: R95A: MxPPO (SEQ ID NO: 3) variant (protein)
chain: B1 chain with R95A, M311I, I365M
modifications: Synthetic (Protoporphyrinogen IX oxidase (MxPPO) of Myxococcus xanthus)

Changes are numbered by the printed parent chain. Names may count otherwise.

The first experiment has as its system MxPPO. The experiment in a line: Herbicide tolerance test of MxPPO wild type and variants in PPO-deficient E. coli BT3(ΔPPO), growth on herbicide-containing LB agar. It counts as cell-based, Myxococcus xanthus. The settings on record: relative to MxPPO WT, light, 2000 μM (FIG. 14). Here is the method: Then, the extent of tolerance was evaluated.
Turning to B1, the “Herbicide tolerance, tiafenacil” value is listed as “+ (1-9 fold higher tolerance)”.

On to B2, for which the “Herbicide tolerance, tiafenacil” value is “+ (1-9 fold higher tolerance)”.

In the case of B3, the “Herbicide tolerance, tiafenacil” value is listed as “+ (1-9 fold higher tolerance)”.

Regarding B4, the “Herbicide tolerance, tiafenacil” value is recorded as “+ (1-9 fold higher tolerance)”.

Staying with this experiment, now noted: relative to MxPPO WT, light, up to 100 μM (FIG. 13).
In the case of B5, the “Herbicide tolerance, flumioxazin” value is listed as “++ (10-99 fold higher tolerance)”.

In the case of B6, the “Herbicide tolerance, flumioxazin” value was “++ (10-99 fold higher tolerance)”.

Staying with this experiment, now noted: relative to MxPPO WT, light, up to 200 μM (FIG. 13).
As to B5, the “Herbicide tolerance, saflufenacil” value was “++ (10-99 fold higher tolerance)”.

For B6, the “Herbicide tolerance, saflufenacil” value was “++ (10-99 fold higher tolerance)”.

Still in this experiment, the particulars now being: relative to MxPPO WT, light, up to 400 μM (FIGS. 15-17).
As for B7, the “Herbicide tolerance, flumioxazin” value is “+ (1-9 fold higher tolerance)”.

In the case of B8, the “Herbicide tolerance, flumioxazin” value is on record as “+ (1-9 fold higher tolerance)”.

On to B1, for which the “Herbicide tolerance, flumioxazin” value was “++ (10-99 fold higher tolerance)”.

Turning to B9, the “Herbicide tolerance, flumioxazin” value is reported as “+ (1-9 fold higher tolerance)”.

Regarding B2, the “Herbicide tolerance, flumioxazin” value was “++ (10-99 fold higher tolerance)”.

On to B10, for which the “Herbicide tolerance, flumioxazin” value is given as “+ (1-9 fold higher tolerance)”.

In the case of B3, the “Herbicide tolerance, flumioxazin” value is given as “++ (10-99 fold higher tolerance)”.

Take B4: the “Herbicide tolerance, flumioxazin” value is given as “+ (1-9 fold higher tolerance)”.

For the molecule B11, the “Herbicide tolerance, flumioxazin” value is listed as “++ (10-99 fold higher tolerance)”.

Staying with this experiment, now noted: relative to MxPPO WT, light, up to 1000 μM (FIGS. 18-20).
Take B7: the “Herbicide tolerance, sulfentrazone” value is “+ (1-9 fold higher tolerance)”.

For the molecule B8, the “Herbicide tolerance, sulfentrazone” value is “+ (1-9 fold higher tolerance)”.

Consider B1, for which the “Herbicide tolerance, sulfentrazone” value is given as “+ (1-9 fold higher tolerance)”.

Turning to B9, the “Herbicide tolerance, sulfentrazone” value is listed as “+ (1-9 fold higher tolerance)”.

Consider B2, for which the “Herbicide tolerance, sulfentrazone” value is “+ (1-9 fold higher tolerance)”.

Turning to B10, the “Herbicide tolerance, sulfentrazone” value was “+ (1-9 fold higher tolerance)”.

B3: the “Herbicide tolerance, sulfentrazone” value is “+ (1-9 fold higher tolerance)”.

On to B4, for which the “Herbicide tolerance, sulfentrazone” value is on record as “+ (1-9 fold higher tolerance)”.

With B11, the “Herbicide tolerance, sulfentrazone” value is “+ (1-9 fold higher tolerance)”.

The test system of the next experiment is MxPPO. Put plainly: PPO enzyme activity of purified MBP-fused MxPPO wild type and variants. It counts as biochemical, Myxococcus xanthus. The settings on record: PPO enzyme activity of purified MxPPO protein, relative to wild type. Here is the method: Thus, PPO proteins of wild type and variants were expressed as fused to MBP and were used for experiments.
The following process for purification of PPO protein was performed in a 4° C. cold room. […] The column was washed with 3 column volumes of buffer and the presence of protein in the washing solution was examined. When the protein was no longer detected, the washing procedure was terminated. Then, the MBP-PPO protein was eluted with approximately 2 column volumes of buffer containing 20 mM maltose. The protein concentration of each eluent was determined and the elution was stopped when the protein was no longer detected. Ten microliter of each fraction was investigated for protein quantification and SDS-PAGE analysis. The highly pure fractions of PPO protein variants were used for the enzyme assay.
Since protoporphyrinogen IX, a substrate of PPO protein, was not commercially available, it was chemically synthesized in the laboratory. Overall process was performed in dark under nitrogen stream. […] of protoporphyrin IX was dissolved in 20 ml of 20% (v/v) EtOH, and stirred under dark condition for 30 minutes. The obtained protoporphyrin IX solution was put into a 15 ml screw tube in an amount of 800 μl, and flushed with nitrogen gas for 5 minutes. To this, 1.5 g of sodium amalgam was added and vigorously shaken for 2 minutes. The lid was opened to exhaust hydrogen gas in the tube. Thereafter, the lid was closed and incubated for 3 minutes. The protoporphyrinogen IX solution was filtered using syringe and cellulose membrane filter. To 600 μl of the obtained protoporphyrinogen IX solution, approximately 300 μl of 2M MOPS [3-(N-morpholino) propanesulfonic acid] was added to adjust pH to 8.0. To determine the enzyme activity of PPO protein, a reaction mixture was prepared with the following composition (based on 10 ml): 50 mM Tris-Cl (pH 8.0); 50 mM NaCl; 0.04% (v/v) Tween 20; 40 mM glucose (0.072 g); 5 units glucose oxidase (16.6 mg); and 10 units catalase (1 μl).
Hundred and eighty microliters of a reaction mixture […] were placed in 96 well plates and 20 μl of purified PPO proteins were added. After 50 μl of the mineral oil was layered, the reaction was initiated by adding the substrate, protoporphyrinogen IX solution, to a final concentration of 50 μM. The reaction proceeded at room temperature for 30 min and the fluorescence of protoporphyrin IX was measured using Microplate reader (Sense, Hidex) (excitation: 405 nm; emission: 633 nm). To calculate the PPO enzyme activity, the protoporphyrinogen IX solution was kept open in the air overnight to oxidize the solution. To this, 2.7 N HCl was added, and the absorbance at 408 nm was measured. A standard curve was generated using standard protoporphyrin IX, and PPO activity was measured by calibration of protoporphyrin IX using the standard curve of protoporphyrin IX.
Activities of variants were presented relatively compared to that of wild type.
Consider B5, for which the “Activity (%)” value was 40%.

As to B7, the “Activity (%)” value was 78%.

In the case of B8, the “Activity (%)” value is reported as 38%.

As for B1, the “Activity (%)” value was determined as 75%.

In the case of B9, the “Activity (%)” value was 41%.

Take B12: the “Activity (%)” value is 40%.

On to B13, for which the “Activity (%)” value is reported as 42%.

Consider B6, for which the “Activity (%)” value was found to be 87%.

B2: the “Activity (%)” value was found to be 71%.

Regarding B10, the “Activity (%)” value is 80%.

Consider B3, for which the “Activity (%)” value was 71%.

For B4, the “Activity (%)” value is recorded as 68%.

With B14, the “Activity (%)” value was determined as 52%.

B11: the “Activity (%)” value came to 37%.

For B15, the “Activity (%)” value turned out to be 43%.
